Results as given in PMC4843787 (Biochimica et biophysica acta, 2015).

Target: T1, MauG, bis-Fe(IV) redox state (UniProt Q51658 21-387)
T1 sequence (looked up): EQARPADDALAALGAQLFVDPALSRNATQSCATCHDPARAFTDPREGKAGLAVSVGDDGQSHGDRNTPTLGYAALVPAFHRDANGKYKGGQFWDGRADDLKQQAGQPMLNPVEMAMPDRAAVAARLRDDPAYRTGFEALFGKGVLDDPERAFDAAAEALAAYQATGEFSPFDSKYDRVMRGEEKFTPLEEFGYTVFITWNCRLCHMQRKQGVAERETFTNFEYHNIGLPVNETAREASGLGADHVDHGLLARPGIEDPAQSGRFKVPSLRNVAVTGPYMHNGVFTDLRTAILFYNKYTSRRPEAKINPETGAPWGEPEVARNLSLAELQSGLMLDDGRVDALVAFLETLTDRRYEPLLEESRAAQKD
Experiment: stopped-flow single-turnover kinetics

B1: amicyanin from Paracoccus denitrificans, wild type, reduced Cu(I) form (natural protein, UniProt P22364 27-131, looked up)
chain: DKATIPSESPFAAAEVADGAIVVDIAKMKYETPELHVKVGDTVTWINREAMPHNVHFVAGVLGEAALKGPMMKKEQAYSLTFTEAGTYDYHCTPHPFMRGKVVVE
  Kd: 165 ± 50 µM

B2: P94A amicyanin, reduced Cu(I) form (natural protein, Paracoccus denitrificans, UniProt P22364 27-131, looked up)
chain: DKATIPSESPFAAAEVADGAIVVDIAKMKYETPELHVKVGDTVTWINREAMPHNVHFVAGVLGEAALKGPMMKKEQAYSLTFTEAGTYDYHCTAHPFMRGKVVVE
  Kd: 240 ± 82 µM
